Assay results as given in US20240084027A1 (BEIJING MABWORKS, published 2024).
Read-outs that look alike come from different tables or passages of the source. Blank lines part the entries; values can stand above or below the binder they belong to.

Tests used:
[1] = biological target: T1, mouse CD40 on HEK293A cells (mouse, UniProt P27512 20-289); experiment: FACS on HEK293A cells expressing mouse CD40
T1 sequence: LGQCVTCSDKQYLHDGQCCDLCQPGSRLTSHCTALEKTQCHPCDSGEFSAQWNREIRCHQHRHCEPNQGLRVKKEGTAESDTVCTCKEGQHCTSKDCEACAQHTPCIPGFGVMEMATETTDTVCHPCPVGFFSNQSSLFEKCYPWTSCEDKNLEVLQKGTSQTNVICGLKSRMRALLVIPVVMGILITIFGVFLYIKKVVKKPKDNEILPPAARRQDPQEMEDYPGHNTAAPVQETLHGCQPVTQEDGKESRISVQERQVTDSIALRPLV
Protocol: (§1) The bispecific antibodies as prepared above were tested for their binding capability to cell surface human, monkey and mouse CD40 proteins by FACS, using the HEK293A cells prepared in Example 1 that stably expressed human, monkey or mouse CD40. Briefly, a 96-well plate was seeded with 10⁵ HEK293A cells in 50 μl PBS, and then added with 100 μl serially diluted anti-CD40 antibody 714VH2VL2 and the bispecific antibodies of the disclosure (starting concentration at 40 μg/ml). After incubation at 4° C. for 1 h, the plate was washed by PBST for 3 times. The plate was added with 1:500 diluted APC-goat anti-mouse IgG (Cat #:405308, BioLegen, USA), incubated at 4° for 1 h, washed with PBS for 3 times, and subjected to fluorescence measurement in a FACS machine (BD).

[2] = biological target: T2, human CD40 on HEK293A/human CD40 cells (human, UniProt P25942 21-277); experiment: FACS on HEK293A/human CD40 cells
T2 construct: also called HEK-Blue/CD40 cells
Protocol: as §1

[3] = biological target: T3, monkey CD40 on HEK293A/monkey CD40 cells (monkey, UniProt P25942 21-277 (human entry)); experiment: FACS on HEK293A/monkey CD40 cells
T3 chain: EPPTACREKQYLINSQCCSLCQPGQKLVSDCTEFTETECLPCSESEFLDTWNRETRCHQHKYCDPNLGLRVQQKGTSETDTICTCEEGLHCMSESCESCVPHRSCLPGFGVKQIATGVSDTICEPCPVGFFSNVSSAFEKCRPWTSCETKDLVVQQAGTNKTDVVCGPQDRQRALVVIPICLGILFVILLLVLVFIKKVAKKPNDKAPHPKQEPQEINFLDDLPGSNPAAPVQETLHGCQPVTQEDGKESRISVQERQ
Protocol: as §1

[4] = biological target: T4, human PD-L1 on HEK293A/human PD-L1 cells (human, UniProt Q9NZQ7 19-290); experiment: FACS on HEK293A/human PD-L1 cells
T4 sequence (Q9NZQ7 19-290 limits assumed): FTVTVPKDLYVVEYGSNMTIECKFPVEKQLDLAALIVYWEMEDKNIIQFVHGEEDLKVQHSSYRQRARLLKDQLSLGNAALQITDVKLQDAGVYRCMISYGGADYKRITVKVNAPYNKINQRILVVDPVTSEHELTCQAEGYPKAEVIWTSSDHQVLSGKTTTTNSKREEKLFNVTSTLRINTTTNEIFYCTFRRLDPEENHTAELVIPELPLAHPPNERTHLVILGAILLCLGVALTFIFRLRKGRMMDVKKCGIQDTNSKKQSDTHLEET
Protocol: as §1
(§2) Following the protocol of Example 4, the bispecific antibodies were tested for their binding capability to cell surface human, or monkey PD-L1 proteins by FACS, using the HEK293A cells prepared in Example 1 that stably expressed human or monkey […].

[5] = biological target: monkey PD-L1 on HEK293A/monkey PD-L1 cells (monkey, UniProt Q9NZQ7 19-290 (human entry)); experiment: FACS on HEK293A/monkey PD-L1 cells
Sequence of monkey PD-L1 on HEK293A/monkey PD-L1 cells (Q9NZQ7 other isoform, or with tags, fused parts or gaps limits assumed): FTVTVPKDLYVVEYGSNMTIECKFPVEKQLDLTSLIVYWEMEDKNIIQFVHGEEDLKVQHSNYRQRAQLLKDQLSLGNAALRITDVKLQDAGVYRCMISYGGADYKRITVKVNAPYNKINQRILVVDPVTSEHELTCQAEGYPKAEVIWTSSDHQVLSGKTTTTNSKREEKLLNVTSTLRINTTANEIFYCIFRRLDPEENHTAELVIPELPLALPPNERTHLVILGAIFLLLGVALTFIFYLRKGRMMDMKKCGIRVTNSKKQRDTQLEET
Protocol: as §1, §2

[6] = biological target: T4, human PD-L1 on HEK293A/human PD-L1 cells; experiment: FACS on HEK293A/human PD-L1 cells; remark: listed apart in the source
Protocol: as §1
(§3) Following the protocols in Example 4 and Example 5, the bi- or multi-specific antibodies of the disclosure were tested for their binding capability to human PD-L1 and human CD40 proteins by FACS using the HEK293A cells prepared in Example 1 that stably expressed human PD-L1 or human CD40.

[7] = biological target: T4, human PD-L1 on HEK293A/human PD-L1 cells; experiment: FACS on HEK293A/human PD-L1 cells; remark: listed apart in the source
Protocol: as §1, §3

[8] = biological target: T4, human PD-L1 on HEK293A/human PD-L1 cells; experiment: FACS on HEK293A/human PD-L1 cells; remark: listed apart in the source
Protocol: as §1, §3

[9] = biological target: T4, human PD-L1 on HEK293A/human PD-L1 cells; experiment: FACS blocking assay on HEK293A/human PD-L1 cells; blocked ligand PD-1-Fc
Protocol: (§4) The bispecific antibodies were tested for their blocking activity on PD-1-PD-L1 binding by FACS using the HEK293A cells stably expressing human PD-L1 molecules as prepared in Example 1. Briefly, a 96-well plate was seeded with 10⁵ HEK293A/human PD-L1 cells in 100 μl cell culture medium, and then added with 50 μl serially diluted anti-PD-L1 antibody 56E5VH5VL4 or MBS307-3 molecules. After incubation at 4° C. for 1 h. the plate was washed with PBST for 3 times, added with 100 μl 200 μg/ml PD-1-Fc fusion proteins (Cat #:10377-10211, Sino Biological, CN), incubated at 4° C. for 1 h, washed with PBST for 3 times, and added with 1:500 diluted PE-goat anti-human IgG (Cat #:PAI-86078, Thermofisher, USA). After incubation at 4° C. for 1 h, the plate was washed with PBST for 3 times and measured for fluorescence using a FACS machine (BD).

[10] = biological target: T4, human PD-L1 on HEK293A/human PD-L1 cells; experiment: as above; remark: listed apart in the source
Protocol: as §4
(§5) Following the protocol of Example 7, the bi- or multi-specific antibodies were tested for their capability to block PD-1-PD-L1 binding by FACS, using the HEK293A cells prepared in Example 1 that stably expressed human PD-L1 molecules.

[11] = biological target: T4, human PD-L1 on HEK293A/human PD-L1 cells; experiment: as above; remark: listed apart in the source
Protocol: as §4, §5

- EC50 (read off the curve) [2]: ~0.2 µg/mL
- EC50 (read off the curve) [3]: ~0.2 µg/mL
- EC50 (read off the curve) [4]: ~0.3 µg/mL
- binding result [5]: binds
B1: MBS307-1 (bispecific antibody, human IgG1, kappa, L234A L235A)
heavy 1: QVQLQESGPGLVKPSDTLSLTCAVSGYSITTNYYWNWIRQPPGKGLEWMGYIKYDGSNNYNPSLKNRITISVDTSKNQFSLKLSSVTAVDTAVYYCARLDYWGQGTLVTVSSASTKGPSVFPLAPSSKSTSGGTAALGCLVKDYFPEPVTVSWNSGALTSGVHTFPAVLQSSGLYSLSSVVTVPSSSLGTQTYICNVNHKPSNTKVDKKVEPKSCDKTHTCPPCPAPEAAGGPSVFLFPPKPKDTLMISRTPEVTCVVVDVSHEDPEVKFNWYVDGVEVHNAKTKPREEQYNSTYRVVSVLTVLHQDWLNGKEYKCKVSNKALPAPIEKTISKAKGQPREPQVYTLPPSREEMTKNQVSLWCLVKGFYPSDIAVEWESNGQPENNYKTTPPVLDSDGSFFLYSKLTVDKSRWQQGNVFSCSVMHEALHNHYTQKSLSLSPGGGGSGGGGSGGGGSGGGGSGIPPHVQKSVNNDMIVTDNNGAVKFPQLCKFCDVRFSTCDNQKSCMSNCSITSICEKPQEVCVAVWRKNDENITLETVCHDPKLPYHDFILEDAASPKCIMKEKKKPGETFFMCSCSSDECNDNIIFSEEYNTSNPD
light 1: DVVLTQSPLSLPVTLGQPASISCRSSQSLENSNGNTFLNWFQQRPGQSPRLLIYKVSNRFSGVPDRFSGSGSGTDFTLKISRVEAEDVGVYYCLQVTHVPFTFGQGTKLEIKRTVAAPSVFIFPPSDEQLKSGTASVVCLLNNFYPREAKVQWKVDNALQSGNSQESVTEQDSKDSTYSLSSTLTLSKADYEKHKVYACEVTHQGLSSPVTKSFNRGEC
heavy 2: QVQLQESGPGLVKPSQTLSLTCTVSGGSITSDYWNWIRQHPGNKLEYMGYISYTGSTYYNPSLKSRISITRDTSKNQFSLKLSSVTTADTAVYYCARYRDWDVRAMDYWGQGTTVTVSSASTKGPSVFPLAPSSKSTSGGTAALGCLVKDYFPEPVTVSWNSGALTSGVHTFPAVLQSSGLYSLSSVVTVPSSSLGTQTYICNVNHKPSNTKVDKKVEPKSCDKTHTCPPCPAPEAAGGPSVFLFPPKPKDTLMISRTPEVTCVVVDVSHEDPEVKFNWYVDGVEVHNAKTKPREEQYNSTYRVVSVLTVLHQDWLNGKEYKCKVSNKALPAPIEKTISKAKGQPREPQVYTLPPSREEMTKNQVSLSCAVKGFYPSDIAVEWESNGQPENNYKTTPPVLDSDGSFFLVSKLTVDKSRWQQGNVFSCSVMHEALHNHYTQKSLSLSPGGGGSGGGGSGGGGSGGGGSGIPPHVQKSVNNDMIVTDNNGAVKFPQLCKFCDVRFSTCDNQKSCMSNCSITSICEKPQEVCVAVWRKNDENITLETVCHDPKLPYHDFILEDAASPKCIMKEKKKPGETFFMCSCSSDECNDNIIFSEEYNTSNPD
light 2: not shown
notes: Both long chains carry linker 1-TGFBII at the C terminus; also called asymmetrical anti-CD40/PD-L1 antibody MBS307-1; MBS307-1-1 + MBS307-1-2
- binding result [1]: no binding (tested: starting concentration at 40 µg/ml)

- EC50 (read off the curve) [4]: ~0.07 µg/mL
- EC50 (read off the curve) [6]: ~0.04 µg/mL
- EC50 (read off the curve) [7]: ~0.04 µg/mL
- EC50 (read off the curve) [8]: ~0.05 µg/mL
- EC50 (read off the curve) [5]: ~0.04 µg/mL
- IC50 (read off the curve) [9]: ~0.06 µg/mL
- IC50 (read off the curve) [10]: ~0.06 µg/mL
- IC50 (read off the curve) [11]: ~0.02 µg/mL
B2: anti-PD-L1 antibody 56E5VH5VL4 (antibody, V domains shown)
VH: QVQLQESGPGLVKPSQTLSLTCTVSGGSITSDYWNWIRQHPGNKLEYMGYISYTGSTYYNPSLKSRISITRDTSKNQFSLKLSSVTTADTAVYYCARYRDWDVRAMDYWGQGTTVTVSS
VL: DIVMTQSPDSLAVSLGEKVTMNCKSSQSLLISGNQKNFLTWYQQKPGQPPKLLIYWASTRESGVPDRFSGSGSGTDFTLTISSLQAEDLAVYYCQNDFGFPFTFGQGTKVEIK
notes: also called the monospecific anti-PD-L1 antibody; 56E5VH5CL4 [sic]
